Experimental data as given in paper PMC6193965.

Target: T1, mouse MILL2 extracellular domain (heavy chain) (mouse)
T1 sequence (Q8HWE5 whole entry, looked up): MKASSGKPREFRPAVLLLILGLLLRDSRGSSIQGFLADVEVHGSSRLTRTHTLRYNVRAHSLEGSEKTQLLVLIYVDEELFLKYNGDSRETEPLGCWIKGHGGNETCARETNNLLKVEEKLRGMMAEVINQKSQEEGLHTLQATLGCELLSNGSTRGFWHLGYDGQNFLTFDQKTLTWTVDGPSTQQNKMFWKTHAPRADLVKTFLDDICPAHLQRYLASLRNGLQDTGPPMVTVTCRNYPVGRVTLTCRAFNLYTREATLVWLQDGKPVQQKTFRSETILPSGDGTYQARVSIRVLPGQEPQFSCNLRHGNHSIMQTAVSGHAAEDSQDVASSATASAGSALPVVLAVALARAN
Experiment: SEC; MILL2 refolded by rapid dilution with 10 μM refolded β2m; complex purified on Superdex 75 and then by cation exchange (RESOURCE S); stoichiometry of the purified complex (Supplementary Fig. 1c)

Work on “mouse β2-microglobulin (from UniProt P01887 21-119) (natural protein)” yielded a stoichiometry N of 1.
